As a reminder, the Kd is the constant that tells how readily two partners part at equilibrium. A higher Kd goes with a looser complex.

Our source for the Kd values is patent US20200299403A1.

Test [1] has as its target HER2 (HER2/c-erb-2 gene product) on SKBR3 cells (UniProt P04626). As to the kind of experiment: FACS on SKBR3 cells, one site specific binding fit.
The target is the same in test [2]. As to the kind of experiment: FACS on SKBR3 cells, Alexa 647 Protein L detection, one site specific binding fit (column head prints 'SKBR3 Cell Binding IC50, nM').

With scFv-Fc (-1) pN3F DBCO-MMAF (Fc fusion), the Kd in test [1] amounted to 6.8 nM. In turn, “trastuzumab scFv (VL_VH) with pN3F at position (-1), conjugated to DBCO-MMAF” showed a Kd in test [2] of 14 nM.
